# Reference: the RNAGym collection of RNA variant scans (doi:10.1073/pnas.2313332121)
# B1: TPR t1 (parent)
# chain: GACCAAUCUGCCCUCAGAGCUCGAGAACAUCUUCGGAUGCAGAGGAGGCAGGCUUCGGUGGCGCGAUAGCGCCAACGUCCUCAACCUCCAAUGCAUCCCACCACAUGAUGAUGCCUGAAGAGCCUUGGUUUUUUG
# Variants of: B1
# Test: polymerase ribozyme fitness, log enrichment relative to wild type (log ratio); higher = more active; in vitro selection for triplet polymerase activity
# Procedure, shortened: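 Mutant libraries for each subunit of a heterodimeric triplet polymerase ribozyme were made by PCR and then transcribed. Each library underwent one round of in vitro selection in triplicate: annealing with a biotinylated primer, the partner subunit and triplets, frozen incubation at −7 °C, gel excision of extended constructs, streptavidin-bead capture and RT-PCR. Input and output libraries were Illumina-sequenced, and only genotypes with ≥10 input reads and ≥1 read per output were kept. Fitness is the logarithm, base 2, of genotype enrichment over wild-type enrichment, computed from inverse-variance-weighted replicate averages.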
row,Variant,polymerase ribozyme fitness (log ratio)
1,C3G U7G C15U U55G C56U G128U,-1.45
2,C4G A5U,-2.76
3,C3U C34A C73A,-2.99
4,C4U C12U G61A,-0.369
5,C4G C56A,-2.34
6,C4G G61C G69U U112A,-1.95
7,C3G G44U G45U C89A C94U A111U C123U U129C G135A,-4.23
8,C4A A6C A46C C49A C70A C72G A84C A119U C123A U126G,-6.91
9,C3U C11G C12A A50U C56G A83U G93C G113U,-5.9
10,C3G U9C C13A C70G C89A U96C C101A G117C,-5.88
11,C4G U7C C34U U38G U54G G69U U109A A111G,-5.81
12,C3G C11A G36C C64U,-3.94
13,C4A U21G G44U G63U C82A C124G,-4.8
14,C3U A83U,-0.257
15,C3G C12G,-0.885
16,C4G C34A G69U C97U C114A G122U C123A,-3.31
17,C3A G45A,-2.42
18,C3A U21A G71U,-2.65
19,C3U C15U G39C,-2.34
20,C4G C88A,-2.51
21,C4G A16G C97U C123U G127A,-4.37
22,C3A C8A C12G G60A U92A C124A,-2.58
23,C4A C123A,-0.283
24,C3A C49A A75U C123U,0.0976

row,Variant,polymerase ribozyme fitness (log ratio)
1,C3A C11U C49G C53A G60A C101A,-3.22
2,C4A A29C G69U G110A G120A G127A,-4.61
3,C4A A41U G58C G117A,-7.2
4,C3G C56U U92G C123A,-3.5
5,C3A G42A G57C G107U C114U G128U U130C,-4.37
6,C3A G36C C70G G120A A121U,-3.08
7,C3U G63C U78C,-3.19
8,C4A G61U A105U,-4.13
9,C3G C4U A83U G122U C123U,-0.882
10,C3G C72G,-2.06
11,C3A C13G C89U G128C,-3.62
12,C3G A18C C22A A26G G60U A95U G120A,-4.84
13,C3G C49G,-3.17
14,C3U C13G A90U,-1.11
15,C3A C56A C89A C115U,-3.79
16,C3U C56U G69C C76G C115U G127U,-4.79
17,C3U G10U A26U U55C G69U U112C,-3.58
18,C4A A18G C89A A100C G113A C124U,-4.48
19,C3U C53G C88A U112G U129A,-2.53
20,C3U A16C G17A U54C U78C A90C,-2.6
21,C3A C102A U106C G120U C124U,-2.57
22,C3A C56G G61A U81A U131C,-4.05
23,C3U C12U A46G A50G C101A C104U,-0.987
24,C3U G45U C72G,-2.05

row,Variant,polymerase ribozyme fitness (log ratio)
1,C3U C13U U59A,-0.207
2,C3U G45A G48U G60A,-1.92
3,C3U G48C C76A C79A C101G,-4.45
4,C3U G39C G117U U133G,-4.12
5,C3U A41G C102A G120A,-3.46
6,C3A C53G,-1.72
7,C4U A74U U92G,-3.59
8,C4G U9A U78C U87G C104A C123U,-2.05
9,C3U G48U G61C G65U G71A,-4.29
10,C4G C8G C40G C124U,0.299
11,C4A G120C,-0.842
12,C3G G60U U87A,-2.32
13,C3U G77U G120C,0.534
14,C3A C20A C49G A50C G61U,-5.32
15,C4A A16G U54G C101A U112A A119G,-0.726
16,C4A C11U G69U C97G,-3.61
17,C4G C15A U54A A121C,-2.91
18,C3A C8G C12A C13U C20G G35C C70G A118G C124A U132A,-6.19
19,C3U U78C U87G,-0.313
20,C3U A6C U55C,-1.74
21,C4G C11G C40A G60A C101G U106C,-4.19
22,C4G C64U C115A C123A,-3.09
23,C3G C11U C97A G120C,-5.66
24,C3G A37U C62A A95U G120C,-3.27

row,Variant,polymerase ribozyme fitness (log ratio)
1,C3U U59C A111G G120U,-2.84
2,C3A U14G C62A A119U G120A,-2.14
3,C3U G77A C94G,-1.2
4,C3U G19A C70U A111G G120U,-3.71
5,C4G A111C,-0.384
6,C3G C49U U78A C115A,-3.75
7,C3A C104U,-0.516
8,C3U U14A,-2.47
9,C3U A50C A74C U96G,-1.84
10,C3U C76G,-1.27
11,C4A G36C G65U C104U A119G A121U G128U U129A,-6.35
12,C3G G128C,-0.539
13,C4G A41C G77A A95C,-3.4
14,C3U C8G G10U G45C G71U C85A,-2.2
15,C3U C62U A74U C89G,-2.26
16,C4A G52C,-2.41
17,C3U C40U G60U,0.0261
18,C4U C8G G36U U38A G44U C124A,-5.08
19,C3A G10U U38A C49U C82U G128A U131G,-1.74
20,C4A C85A,-2.93
21,C4G G57A G58C A95C G113U U125C,-6.6
22,C3G G48C U87G U130C,-1.16
23,C4G C72A C86U U112C G122A G135C,-0.311
24,C3U G45U U55A G60A U81A,-1.52

row,Variant,polymerase ribozyme fitness (log ratio)
1,C3G G60C,-1.74
2,C3G A50C C73A A95U,-2.64
3,C4A C13U C101G,-4.23
4,C3U U33G C53U U54A C73U U87A C124A,-4.16
5,C3A C79U C124G,0.849
6,C3U C34A C53A C79U C88U C97U,-2.66
7,C3G A24G,-3.73
8,C4A C99U,-4.5
9,C4G G44U G61U A66U C72G C82A C85A A111C,-6.11
10,C4A C13U,-1.41
11,C3G C97U,-2.53
12,C4U A18G,-3.62
13,C4U C11G G60A C72G C82U C97U A108G G120A,-3.71
14,C3U C15A G52C,-3.65
15,C3U G93C U112A C123G,-1.14
16,C4G C8G C11A U14G G69C C124U,-2.77
17,C3U G44C G60A,-0.897
18,C4A C98U,-2.2
19,C4G A37U A90C,-2.66
20,C4G C12U G60U C89G A111U,-5.57
21,C4U C11G C49U G51A C72U C80U C94G,-1.9
22,C3U C72U,-0.173
23,C3U C72A,-0.325
24,C3G C11G C97G C114A,-4.68

row,Variant,polymerase ribozyme fitness (log ratio)
1,C4U A37G A50C C82A,-1.39
2,C4A A16U C72U A95C,-3.63
3,C4U C34A G52C C99A C102U U106C,-6
4,C3A G48A A84G C114U,-3.87
5,C3U A18U C89U G120C G122U,-3.19
6,C3U C11U C13G G63C U116C,-4.43
7,C4A A24G G48U G60A,-4.54
8,C3A C72A G110U,-3.62
9,C3U C40G G63C C115U,-2.66
10,C4A A91U,-3.65
11,C4U A66G C124G,0.544
12,C3A U78A,-1.96
13,C3A U78C,-0.717
14,C3G C15A C22G C115U,-4.4
15,C3U A6U C20G A37U C72U C82U G113A A119C U129C U133A,-5.44
16,C3U C56U C115U G127U,-3.57
17,C3G G47U G48C C82G C123U,-1.92
18,C3U C73G A83G,-2.1
19,C3A U38A A121C U129A,-0.064
20,C4A C40U C102G C115A,-6.67
21,C4A C11G G60A C114G,-5.08
22,C3A C53U U55A C73A G117A,-4.29
23,C4A C70G,-3.6
24,C4A C70U,-1.71

row,Variant,polymerase ribozyme fitness (log ratio)
1,C3G C49A G57U C64U G120U G128U,-1.81
2,C4A A119U,-1.66
3,C4G C114U,-3.57
4,C3A C8G C88U A90C G110A U132A,-2.77
5,C3U A43U C56G U81A A95U A111G G122A,-5.71
6,C3G A95G,-2.02
7,C4U C13U U38A C53A,-1.25
8,C3A C8A C12A G61A,-1.5
9,C4A U7A G61A,-0.369
10,C4A C15G G47U C64U C115G A119U G120U G135U,-7.19
11,C3U G71C G77A,-5.92
12,C3G C102A,-4.71
13,C3G A46U C72A G113C,-3.77
14,C3A G44C C53U C123A,-1.67
15,C4G U9C U112C G117A,-1.01
16,C4G A37G C49G G113C,-4.25
17,C4U A5C C12G C62U C89U C123G,-1.41
18,C4A G60A C102U A118U U132C,-4.76
19,C4G U9A C62G U92A A95G U112C G113A,-5.53
20,C3U A6U G52U A111U A118U,-4.02
21,C4G A5G C11U C73G C89A G113U C114U G122U U129G,-5.02
22,C3U C56G C73U,-1.31
23,C4U C13G C56G C72U C73A,-5.32
